Experimental data published in patent US20100111986A1 (Memorial Sloan Kettering, published 2010).

How the values were obtained:
HLA-A0301 = biological target: T1, HLA-A0301 (human); experiment: stabilization assay on Raji HLA-A0301 cells
T1 construct: MHC class I molecule on Raji HLA-A0301 cells

HLA-A0201 = biological target: T2, HLA-A0201 (human); experiment: T2 cell HLA stabilization assay, flow cytometry
T2 construct: MHC class I molecule on T2 cells; also called HLA-A2.1; HLA 0201
Experimental: T2 cells (TAP″, HLA-A0201⁺) were incubated overnight at 27° C. at a concentration of 1×10⁶ cells/ml in FCS-free RPMI medium supplemented with 5 μg/ml human β₂m (Sigma, St Louis, Mo.) in the absence (negative control) or presence of either a positive reference tyrosinase peptide or test peptides at various final concentrations (50, 10, 1, and 0.1 micrograms (μg)/ml). Following a 4-hour incubation with 5 μg/ml brefeldin A (Sigma), T2 cells were labeled for 30 minutes at 4° C. with a saturating concentration of anti-HLA-A2.1 (BB7.2) mAb, then washed twice. Cells were then incubated for 30 minutes, 4° C. with a saturating concentration of FITC-conjugated goat IgG F(ab′)2 anti-mouse Ig (Caltag, San Francisco, Calif.), washed twice, fixed in PBS/1% paraformaldehyde and analyzed using a FACS Calibur® cytofluorometer (Becton Dickinson, Immunocytometry Systems, San Jose, Calif.).
The mean intensity of fluorescence (MIF) observed for each peptide concentration (after dividing by the MIF in the absence of peptide) was used as an indication of peptide binding and expressed as a “fluorescence index.” Stabilization assays were performed similarly. Following initial evaluation of peptide binding at time 0, cells were washed in RPMI complete medium to remove free peptides and incubated in the continuous presence of 0.5 μg/ml brefeldin-A for 2, 4, 6 or 8 hours.

Row | Binder | binding result (HLA-A0301) | binding result (HLA-A0201)
1 | QMNLGATLK [A3 WT-1 B (native)] | binds | 
2 | QMYLGATLK [A3WT-1 B1 (ANALOGUE)] | binds | 
3 | NMHQRNMTK [A3 WT-1 A (native)] | binds | 
4 | YLGATLKGV [WT-1 D1 (ANALOGUE)] |  | binds
5 | YLGEQQYSV [WT-1 B1 (ANALOGUE)] |  | binds
6 | SLGEQQYSV [WT-1 B (native)] |  | binds
7 | KLSHLQMHSR [A3WT-1 D (native)] | binds | 
8 | KLYHLQMHSR [A3WT-1 D1 (ANALOGUE)] | binds | 
9 | KLSHLQMHSK [A3 WT-1 D2 (ANALOGUE)] | binds | 
10 | FMCAYPGCNK [A3WT-1 C (native)] | binds | 
11 | YMFPNAPYL [WT-1 A1 (ANALOGUE)] |  | binds
12 | YLLPAVPSL [WT-1 C1 (ANALOGUE)] |  | binds
13 | ALLPAVPSL [WT-1 C (native)] |  | binds

More lines, now with the values ahead:

Row | binding result (HLA-A0301) | binding result (HLA-A0201) | Binder
14 | binds |  | QMNLGVTLK [A3WT-1 B2 (ANALOGUE)]
15 | binds |  | QMYLGVTLK [A3WT-1 B3 (ANALOGUE)]
16 | binds |  | NMYQRNMTK [A3 WT-1 A1 (ANALOGUE)]
17 | binds |  | NMYQRVMTK [A3 WT-1 A3 (ANALOGUE)]
18 | binds |  | NMHQRVMTK [A3WT-1 A2 (ANALOGUE)]
19 |  | binds | NLGATLKGV [WT-1 D (native)]
20 | binds |  | KLYHLQMHSK [A3 WT-1 D3 (ANALOGUE)]
21 | binds |  | FMYAYPFCNK [A3 WT-1 C3 (ANALOGUE)]
22 | binds |  | FMYAYPGCNK [A3WT-1 C1 (ANALOGUE)]
23 | binds |  | FMCAYPFCNK [A3 WT-1 C2 (ANALOGUE)]
24 |  | binds | RMFPNAPYL [WT-1 A (native)]
